# Test system: CYP2D6
# Experiment: Functional CYP2D6 in vitro assay: HEK-Blue cells transiently transfected with a CYP2D6 variant, P450-Glo luminescence with Luciferin-ME EGE, normalized to secreted NanoLuc
# Assay type: cell-based, human
# Settings: one-way ANOVA followed by Dunnett post hoc test, categories: loss, decrease, normal, increase of function
# Protocol: Therefore the CYP2D6 coding sequence (CDS) of interest is cloned into pcDNA3.1-HISC vector, and variants of interest are produced via site-directed mutagenesis (FIG. 1; step 1).
# pcDNA3.1-HISC (A) and pNL1.3CMV[secNluc/CMV] (B) vectors are co-transfected in HEK-Blue™ cells (FIG. 1; step 2). 48 hours after transfection, secreted NanoLuc is detected and measured by luminescence using a multi-plate reader (FIG. 1; step 3). Following NanoLuc detection, old media is replaced with Luciferin ME-EGE containing media (FIG. 1; step 4). After 3 hours incubation at 37° C., cells are lysed and luciferin production (proportional to CYP2D6 activity) is measured using a multi-plate reader (FIG. 1; step 5).
# CYP2D6 cDNA was obtained from total liver RNA (Ambion®, Life Technology, Wien, Austria), following Reverse-Transcription-PCR (RT-PCR) using the Quantitect® Reverse Transcription kit (Qiagen, Hilden, Germany) following manufacturer instructions. The CYP2D6 coding sequence (CDS) was then amplified using the following oligonucleotide primers: 5′-[…]-3′ (forward primer) and 5′-[…]-3′ (reverse primer). The CYP2D6 CDS was then cloned into the pcDNA3.1-HISC eukaryotic protein expression vector under the control of the CMV immediate enhancer and promoter, using the NheI and KpnI restriction digestion enzymes (Thermo Scientific, Waltham, Mass., USA). […] All the other tested CYP2D6 variants were similarly created. After production, vectors and cloned inserts were verified with Sanger sequencing against the wild-type reference sequence (SEQ ID No: 2).
# Cell culture and transfection Human Embryonic Kidney (HEK)-Blue (HEK-Blue™ IL-4/IL-13 cells, Invivogen, Toulouse, France) cells, an engineered cell line derived from HEK-293 cells, were cultured in a humidified incubator at 37° C. with 5% CO2 with Dulbecco's Modified Eagles Medium (DMEM) supplemented with 4.5 g/L glucose, 10% (v/v) Fetal Bovine Serum (FBS), 1.5% NaHCO3, 50 U/mL penicillin, 50 μg/mL streptomycin, 10 μg/mL Blasticidin and 100 μg/mL Zeocin™ (Invivogen, Toulouse, France). Media was replaced three times weekly. […]
# Forty-eight hours following transfection, a 20 μL aliquot of the supernatant was transferred from each well into a new white 96-well Nunclon™ A Surface plate for the detection of the secreted NanoLuc® levels using the Nano-Glo® Luciferase assay (Promega, Mannheim, Germany). […] Following three minutes incubation at room temperature (RT), luminescence was measured using the Spark® 10M multimode multiplate reader (Tecan, Grodig, Austria), keeping an optical density filter of 1 (OD1) and 1 second of integration time. Luminescence levels directly correspond to the amount of secreted NanoLuc®, which is used for normalization of transfection efficiency. […]
row,Molecule,function category of the variant versus *1 and *3 controls
1,"*10: human CYP2D6 variant allele *10 (PV00435), SEQ ID NO: 6 (protein, UniProt P10635 1-497, looked up, variant P34S S486T) Cytochrome P450 2D6: MGLEALVPLAVIVAIFLLLVDLMHRRQRWAARYSPGPLPLPGLGNLLHVDFQNTPYCFDQLRRRFGDVFSLQLAWTPVVVLNGLAAVREALVTHGEDTADRPPVPITQILGFGPRSQGVFLARYGPAWREQRRFSVSTLRNLGLGKKSLEQWVTEEAACLCAAFANHSGRPFRPNGLLDKAVSNVIASLTCGRRFEYDDPRFLRLLDLAQEGLKEESGFLREVLNAVPVLLHIPALAGKVLRFQKAFLTQLDELLTEHRMTWDPAQPPRDLTEAFLAEMEKAKGNPESSFNDENLRIVVADLFSAGMVTTSTTLAWGLLLMILHPDVQRRVQQEIDDVIGQVRRPEMGDQAHMPYTTAVIHEVQRFGDIVPLGVTHMTSRDIEVQGFRIPKGTTLITNLSSVLKDEAVWEKPFRFHPEHFLDAQGHFVKPEAFLPFSAGRRACLGEPLARMELFLFFTSLLQHFSFSVPTGQPRPSHHGVFAFLVTPSPYELCAVPR",decrease of function
2,"*29: human CYP2D6 variant allele *29 (PV00453), SEQ ID NO: 8 (protein, UniProt P10635 1-497, looked up, variant V136I R296C V338M S486T) Cytochrome P450 2D6: MGLEALVPLAVIVAIFLLLVDLMHRRQRWAARYPPGPLPLPGLGNLLHVDFQNTPYCFDQLRRRFGDVFSLQLAWTPVVVLNGLAAVREALVTHGEDTADRPPVPITQILGFGPRSQGVFLARYGPAWREQRRFSISTLRNLGLGKKSLEQWVTEEAACLCAAFANHSGRPFRPNGLLDKAVSNVIASLTCGRRFEYDDPRFLRLLDLAQEGLKEESGFLREVLNAVPVLLHIPALAGKVLRFQKAFLTQLDELLTEHRMTWDPAQPPRDLTEAFLAEMEKAKGNPESSFNDENLCIVVADLFSAGMVTTSTTLAWGLLLMILHPDVQRRVQQEIDDMIGQVRRPEMGDQAHMPYTTAVIHEVQRFGDIVPLGVTHMTSRDIEVQGFRIPKGTTLITNLSSVLKDEAVWEKPFRFHPEHFLDAQGHFVKPEAFLPFSAGRRACLGEPLARMELFLFFTSLLQHFSFSVPTGQPRPSHHGVFAFLVTPSPYELCAVPR",decrease of function
3,"*14: human CYP2D6 variant allele *14 (PV00439), SEQ ID NO: 7 (protein, UniProt P10635 1-497, looked up, variant P34S G169R R296C S486T) Cytochrome P450 2D6: MGLEALVPLAVIVAIFLLLVDLMHRRQRWAARYSPGPLPLPGLGNLLHVDFQNTPYCFDQLRRRFGDVFSLQLAWTPVVVLNGLAAVREALVTHGEDTADRPPVPITQILGFGPRSQGVFLARYGPAWREQRRFSVSTLRNLGLGKKSLEQWVTEEAACLCAAFANHSRRPFRPNGLLDKAVSNVIASLTCGRRFEYDDPRFLRLLDLAQEGLKEESGFLREVLNAVPVLLHIPALAGKVLRFQKAFLTQLDELLTEHRMTWDPAQPPRDLTEAFLAEMEKAKGNPESSFNDENLCIVVADLFSAGMVTTSTTLAWGLLLMILHPDVQRRVQQEIDDVIGQVRRPEMGDQAHMPYTTAVIHEVQRFGDIVPLGVTHMTSRDIEVQGFRIPKGTTLITNLSSVLKDEAVWEKPFRFHPEHFLDAQGHFVKPEAFLPFSAGRRACLGEPLARMELFLFFTSLLQHFSFSVPTGQPRPSHHGVFAFLVTPSPYELCAVPR",decrease of function
4,"*9: human CYP2D6 variant allele *9 (PV00434), SEQ ID NO: 5 (protein, UniProt P10635 1-497, looked up, variant K281*) Cytochrome P450 2D6: MGLEALVPLAVIVAIFLLLVDLMHRRQRWAARYPPGPLPLPGLGNLLHVDFQNTPYCFDQLRRRFGDVFSLQLAWTPVVVLNGLAAVREALVTHGEDTADRPPVPITQILGFGPRSQGVFLARYGPAWREQRRFSVSTLRNLGLGKKSLEQWVTEEAACLCAAFANHSGRPFRPNGLLDKAVSNVIASLTCGRRFEYDDPRFLRLLDLAQEGLKEESGFLREVLNAVPVLLHIPALAGKVLRFQKAFLTQLDELLTEHRMTWDPAQPPRDLTEAFLAEMEAKGNPESSFNDENLRIVVADLFSAGMVTTSTTLAWGLLLMILHPDVQRRVQQEIDDVIGQVRRPEMGDQAHMPYTTAVIHEVQRFGDIVPLGVTHMTSRDIEVQGFRIPKGTTLITNLSSVLKDEAVWEKPFRFHPEHFLDAQGHFVKPEAFLPFSAGRRACLGEPLARMELFLFFTSLLQHFSFSVPTGQPRPSHHGVFAFLVSPSPYELCAVPR",decrease of function
